The source of these data is patent publication US20130171155A1.

Holding throughout (assay): cell-based or functional assay
Test [1] deals with baboon factor D (in baboon serum or plasma) (baboon).
For test [2], the target named is dog factor D (in dog serum) (dog). To be noted: scale: times less effective than on human factor D.
Test [3] has as its target human factor D purified from human serum (human) (UniProt P00746).
UniProt P00746, sequence (P00746 26-253 N180D): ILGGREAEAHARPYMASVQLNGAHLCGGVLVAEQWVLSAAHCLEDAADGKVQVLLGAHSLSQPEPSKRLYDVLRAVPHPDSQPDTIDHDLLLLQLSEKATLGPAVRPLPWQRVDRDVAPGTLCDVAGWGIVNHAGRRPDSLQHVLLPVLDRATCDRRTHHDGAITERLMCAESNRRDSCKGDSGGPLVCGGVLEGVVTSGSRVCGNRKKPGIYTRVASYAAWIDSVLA

MAb 166-32 (antibody) showed an inhibition of alternative complement hemolytic activity of baboon plasma, 18 hours after CPB in test [1] of 79.3%. Also, the neutralization of dog factor D in hemolytic assays in test [2] is > 10. Also, in test [3], the alternative complement activity (hemolytic assay, unsensitized rabbit RBCs) in paired extracorporeal circuits stood at 18 µg/mL; the alternative pathway hemolytic activity of plasma from extracorporeal circuits (human whole blood) (molar ratio (MAb:factor D)) came to 1.5; the factor D dependent hemolysis of unsensitized rabbit RBCs (factor D depleted human serum with added factor D) amounted to 0.3 µg/mL.
